From US20210253718A1, “FRIZZLED5 PROTEIN-BINDING AGENTS” (Modmab Therapeutics Corporation, priority 2016, published 2021)
Changes are numbered by the printed parent chain.

Assays:
[1] = molecular target: T1, FZD1 CRD (Homo sapiens, UniProt Q9UP38); assay: Flow cytometry of anti-FZD5 Fab binding to CHO cells overexpressing Frizzled CRD
T1 construct: D112-P238; GPI anchor signal (C); expressed in transfected cells; host or cells: CHO cells, lentiviral pLenti-puro
Protocol: (§1) Plasmids: pLCKO lentiviral vector used for knockout (TKO) library construction and expression of individual gRNAs was constructed as described previously (Hart et al., 2015). Briefly, single guide RNA (sgRNA) scaffold was amplified from px330 (Addgene 42230) and cloned into pLKO.TRC005 lentiviral vector (Broad Institute, Cambridge, Mass.) using AgeI/EcoRI restriction sites. BfuAI sites were added at the 5′ end of the sgRNA scaffold for cloning the TKO library or individual gRNA target sequences. Lenti Cas9-2A-BsdR vector used to generate Cas9 stable expression cell lines was constructed as described previously (Hart et al., 2015). Briefly, lentiCRISPR pXPR_001 (Addgene 49535) was modified through removal of the sgRNA scaffold region through NdeI/EcoRI digest and blunt ends generation using Large Klenow Fragment (NEB). 2A-puro was replaced with 2A-BsdR by PCR using the NheI/MluI sites. Each of the 10 human Frizzled cysteine rich domains (CRDs) were cloned into the lentiviral expression plasmid pLenti-puro in the following cassette: FZD_CRD-MYC-GPI.
(§2) Flow cytometry: Primary staining of cells was performed by treatment with 200 nM Frizzled profiler Fab. Alexa Fluor 488 AffiniPure F(ab′)2 was used as the secondary antibody (Jackson ImmunoResearch #109-546-097). c-Myc (9E10) IgG1 (primary antibody, Santa Cruz, lot #D0306) and Alexa Fluor 488 IgG (secondary antibody, Life technologies, lot #1458649) were used as controls. Dead cells were excluded by staining with Fixable Viability Dye eFluor 660 (eBioscience, catalogue number 65-0864). All reagents were used as per manufacturer's instructions. Flow cytometry was performed on a BD FACSCanto II flow cytometer (BD Biosciences), and data were analyzed with FlowJo software (FlowJo, LLC).
(§3) To confirm that the FZD5-WNT7B circuit is not driven simply by expression and rule out the possibility of a disconnect between RNA and protein levels for the Wnt receptors in HPAF-II cells, a panel of recombinant Fabs were generated, alternatively referred to herein as ‘Frizzled profiler’, that can detect and discriminate all but one of the ten Frizzled receptors. […] To characterize the binding specificity of these Fabs on cells, a panel of 10 CHO cell lines was generated, each expressing the CRD domain of a different myc-tagged Frizzled family member anchored at the plasma membrane through a GPI anchor (CHO-myc-FZDGPI). Despite the high sequence identity between Frizzled family members (FIG. 7A, FIG. 7B), selective Fabs were identified for FZD4, FZD5, FZD6 and FZD10 as assessed by immunofluorescence and flow cytometry (FIG. 7D and FIG. 8). […] The FZD8 CRD is most homologous to that of FZD5 (FIG. 7B). These Fabs can be used to discriminate expression of FZD1, FZD2, FZD4, FZD5, FZD6, FZD7, FZD8, FZD9 and FZD10 (FIG. 7D and FIG. 8). The ‘Frizzled profiler’ therefore consists of 10 different Fabs that can be used to discriminate expression of 9 different Frizzled family members. The Frizzled profiler was then used to confirm that HPAF-II cells express FZD1, FZD5, FZD6 and possibly FZD8 (FIG. 7E).
(§4) The binding of anti-FZD5 Fabs to cell surface-expressed Frizzled protein was further determined for each member of the Frizzled family via flow cytometry and immunofluorescence analysis of a panel of 10 CHO cell lines, each ectopically over-expressing the extracellular cysteine-rich domain (CRD) of a different Frizzled protein family member.

[2] = molecular target: T2, FZD8 CRD (Homo sapiens, UniProt Q9H461); assay: as above
T2 construct: K31-D155; GPI anchor signal (C); expressed in transfected cells; host or cells: CHO cells, lentiviral pLenti-puro
T2 sequence (Q9H461 31-155): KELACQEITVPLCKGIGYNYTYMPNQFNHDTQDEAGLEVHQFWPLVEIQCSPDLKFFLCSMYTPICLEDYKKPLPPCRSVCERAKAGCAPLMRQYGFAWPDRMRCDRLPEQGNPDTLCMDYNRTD
Protocol: as §1, §2, §3, §4

[3] = molecular target: T3, FZD2 CRD (Homo sapiens, UniProt Q14332); assay: Immunofluorescence of anti-FZD5 Fab binding to CHO cells overexpressing Frizzled CRD; parameters: key: −: no binding; +: very weak binder; ++: weak binder; +++: good binder; ++++: very good binder
T3 construct: D35-P161; GPI anchor signal (C); expressed in transfected cells; host or cells: CHO cells, lentiviral pLenti-puro
Summary of the method: (§5)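 Immunofluorescence readout of anti-FZD5 Fab staining on CHO cells ectopically overexpressing a single Frizzled cysteine-rich domain. Each CRD was fused to a myc tag and GPI anchor for plasma-membrane display; flow cytometry was run in parallel.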

[4] = molecular target: T4, FZD7 CRD (Homo sapiens, UniProt O75084); assay: as above; parameters: key: −: no binding; +: very weak binder; ++: weak binder; +++: good binder; ++++: very good binder
T4 construct: D45-S169; GPI anchor signal (C); expressed in transfected cells; host or cells: CHO cells, lentiviral pLenti-puro
Summary of the method: as §5

[5] = molecular target: T5, FZD9 CRD (Homo sapiens, UniProt O00144); assay: as above; parameters: key: −: no binding; +: very weak binder; ++: weak binder; +++: good binder; ++++: very good binder
T5 construct: G35-A161; GPI anchor signal (C); expressed in transfected cells; host or cells: CHO cells, lentiviral pLenti-puro
T5 sequence (O00144 35-161): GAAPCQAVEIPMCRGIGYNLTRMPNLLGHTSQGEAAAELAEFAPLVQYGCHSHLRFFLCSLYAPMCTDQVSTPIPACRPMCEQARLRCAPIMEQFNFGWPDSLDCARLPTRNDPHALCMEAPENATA
Summary of the method: as §5

[6] = test system: ASPC-1 cells; assay: Effect of anti-FZD5 Fabs on proliferation of pancreatic cancer cell lines (percent growth inhibition); format: cell-based, human; conditions: Fab 10 μg/ml
Protocol: (§6) The effect of presently disclosed anti-FZD5 Fabs on proliferation of RNF43 loss-of-function mutant pancreatic cancer cell lines HPAFII, PATU8988S and ASPC-1; and on pancreatic cancer cell line RWP1, was tested at […] and 10 μg/ml.

[7] = test system: HPAFII cells; assay: as above; format: cell-based, human; conditions: for percent growth inhibition, HPAFII 2 μg/ml: Fab 2 μg/ml; for percent growth inhibition, HPAFII 10 μg/ml: Fab 10 μg/ml
Protocol: as §6

[8] = test system: PATU8988S cells; assay: as above; format: cell-based, human; conditions: Fab 10 μg/ml
Protocol: as §6

[9] = test system: RWP1 cells; assay: as above; format: cell-based, human; conditions: Fab 10 μg/ml
Protocol: as §6

[10] = test system: CHO cells not expressing Frizzled CRD; assay: Flow cytometry of anti-FZD5 Fab binding to CHO cells not expressing Frizzled CRD (background)
From the text: as §4

[11] = test system: PATU8988S cells; assay: Effect of anti-FZD5 Fabs on proliferation of pancreatic cancer cell lines (percent growth inhibition); format: cell-based, human; conditions: Fab 2 μg/ml
[12] = molecular target: T1, FZD1 CRD; assay: Immunofluorescence of anti-FZD5 Fab binding to CHO cells overexpressing Frizzled CRD; parameters: key: −: no binding; +: very weak binder; ++: weak binder; +++: good binder; ++++: very good binder
Summary of the method: as §5

B1: Fab-2905: anti-FZD5 Fab with antibody variable region Fv-2905; CDR SEQ ID NOs: 35, 36, 44, 83, 120, 157 (antibody, V domains shown)
VH: EVQLVESGGGLVQPGGSLRLSCAASGFNLSYYYMHWVRQAPGKGLEWVASIYSSYSYTSYADSVKGRFTISADTSKNTAYLQMNSLRAEDTAVYYCARSGYALDYWGQGTLVTVSS
VL: DIQMTQSPSSLSASVGDRVTITCRASQSVSSAVAWYQQKPGKAPKLLIYSASSLYSGVPSRFSGSRSGTDFTLTISSLQPEDFATYYCQQSSWYYGYPFTFGQGTKVEIK
- Median fluorescence, Frizzled CRD overexpressed on CHO cells: FZD1 [1]: 3.75
- Median fluorescence, Frizzled CRD overexpressed on CHO cells: FZD8 [2]: 8.17
- Immunofluorescence binding, Frizzled CRD overexpressed on CHO cells: FZD2 [3]: −
- Immunofluorescence binding, Frizzled CRD overexpressed on CHO cells: FZD7 [4]: +
- Immunofluorescence binding, Frizzled CRD overexpressed on CHO cells: FZD9 [5]: −
- percent growth inhibition, ASPC-1 10 μg/ml [6]: −10.34%
- percent growth inhibition, HPAFII 2 μg/ml [7]: 0.41%
- percent growth inhibition, HPAFII 10 μg/ml [7]: −12.83%
- percent growth inhibition, PATU8988s 10 μg/ml [8]: −46.23%
- percent growth inhibition, RWP1 10 μg/ml [9]: 41.10%
- Median fluorescence, Frizzled CRD overexpressed on CHO cells: None [10]: 3.62
- percent growth inhibition, PATU8988s 2 μg/ml [11]: −26.66%

B2: Fab-2928: anti-FZD5 Fab with antibody variable region Fv-2928; CDR SEQ ID NOs: 35, 36, 67, 105, 143, 175 (antibody, V domains shown)
VH: EVQLVESGGGLVQPGGSLRLSCAASGFNISYSSIHWVRQAPGKGLEWVASIYPSYSSTYYADSVKGRFTISADTSKNTAYLQMNSLRAEDTAVYYCARYYAMDYWGQGTLVTVSS
VL: DIQMTQSPSSLSASVGDRVTITCRASQSVSSAVAWYQQKPGKAPKLLIYSASSLYSGVPSRFSGSRSGTDFTLTISSLQPEDFATYYCQQAFYYPITFGQGTKVEIK
- Median fluorescence, Frizzled CRD overexpressed on CHO cells: FZD1 [1]: 18.43
- Median fluorescence, Frizzled CRD overexpressed on CHO cells: FZD8 [2]: 7.57
- Immunofluorescence binding, Frizzled CRD overexpressed on CHO cells: FZD1 [12]: −
- Immunofluorescence binding, Frizzled CRD overexpressed on CHO cells: FZD2 [3]: −
- Immunofluorescence binding, Frizzled CRD overexpressed on CHO cells: FZD7 [4]: −
- Immunofluorescence binding, Frizzled CRD overexpressed on CHO cells: FZD9 [5]: −
- percent growth inhibition, ASPC-1 10 μg/ml [6]: 6.27%
- percent growth inhibition, HPAFII 2 μg/ml [7]: −17.90%
- percent growth inhibition, HPAFII 10 μg/ml [7]: −25.51%
- percent growth inhibition, PATU8988s 10 μg/ml [8]: −30.22%
- percent growth inhibition, RWP1 10 μg/ml [9]: 32.47%
- Median fluorescence, Frizzled CRD overexpressed on CHO cells: None [10]: 3.68
- percent growth inhibition, PATU8988s 2 μg/ml [11]: −2.11%

B3: Fab-2907: anti-FZD5 Fab with antibody variable region Fv-2907; CDR SEQ ID NOs: 35, 36, 46, 85, 122, 159 (antibody, V domains shown)
VH: EVQLVESGGGLVQPGGSLRLSCAASGFNIYSSYMHWVRQAPGKGLEWVASISSYSGSTYYADSVKGRFTISADTSKNTAYLQMNSLRAEDTAVYYCARSSWGAYIVSYGFDYWGQGTLVTVSS
VL: DIQMTQSPSSLSASVGDRVTITCRASQSVSSAVAWYQQKPGKAPKLLIYSASSLYSGVPSRFSGSRSGTDFTLTISSLQPEDFATYYCQQVGYWWGLITFGQGTKVEIK
- Median fluorescence, Frizzled CRD overexpressed on CHO cells: FZD1 [1]: 3.28
- Median fluorescence, Frizzled CRD overexpressed on CHO cells: FZD8 [2]: 11.76
- Immunofluorescence binding, Frizzled CRD overexpressed on CHO cells: FZD1 [12]: −
- Immunofluorescence binding, Frizzled CRD overexpressed on CHO cells: FZD2 [3]: −
- Immunofluorescence binding, Frizzled CRD overexpressed on CHO cells: FZD7 [4]: +
- Immunofluorescence binding, Frizzled CRD overexpressed on CHO cells: FZD9 [5]: −
- percent growth inhibition, ASPC-1 10 μg/ml [6]: 23.78%
- percent growth inhibition, HPAFII 2 μg/ml [7]: 15.15%
- percent growth inhibition, HPAFII 10 μg/ml [7]: 14.20%
- percent growth inhibition, PATU8988s 10 μg/ml [8]: −42.69%
- percent growth inhibition, RWP1 10 μg/ml [9]: 28.57%
- Median fluorescence, Frizzled CRD overexpressed on CHO cells: None [10]: 3.43
- percent growth inhibition, PATU8988s 2 μg/ml [11]: −12.76%

B4: Fab-2925: anti-FZD5 Fab with antibody variable region Fv-2925; CDR SEQ ID NOs: 35, 36, 64, 102, 140, 172 (antibody, V domains shown)
VH: EVQLVESGGGLVQPGGSLRLSCAASGFNLSYSSMHWVRQAPGKGLEWVASIYPSYGSTYYADSVKGRFTISADTSKNTAYLQMNSLRAEDTAVYYCARYGYFGLDYWGQGTLVTVSS
VL: B3 VL with V91A, G92W, Y93V, W94Y, W95A, G96S, I98F
- Median fluorescence, Frizzled CRD overexpressed on CHO cells: FZD1 [1]: 19.46
- Median fluorescence, Frizzled CRD overexpressed on CHO cells: FZD8 [2]: 7.70
- Immunofluorescence binding, Frizzled CRD overexpressed on CHO cells: FZD1 [12]: ++
- Immunofluorescence binding, Frizzled CRD overexpressed on CHO cells: FZD7 [4]: ++
- Immunofluorescence binding, Frizzled CRD overexpressed on CHO cells: FZD9 [5]: −
- percent growth inhibition, ASPC-1 10 μg/ml [6]: −3.44%
- percent growth inhibition, HPAFII 2 μg/ml [7]: −11.24%
- percent growth inhibition, HPAFII 10 μg/ml [7]: −17.38%
- percent growth inhibition, PATU8988s 10 μg/ml [8]: −22.86%
- percent growth inhibition, RWP1 10 μg/ml [9]: 33.53%
- Median fluorescence, Frizzled CRD overexpressed on CHO cells: None [10]: 3.55
- percent growth inhibition, PATU8988s 2 μg/ml [11]: −8.12%
